Results reported in the domain aggregation screens of Martell et al. (2025).

Experiment: soluble fraction after stress (log2 fold change); higher = more stays soluble; pooled small domains, quantitative proteomics
Conditions: stress: pH 4
In short: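 Aggregation propensity is read out as the fold change in how much of each domain remains soluble after acid stress. The custom small-domain libraries were pooled, held at pH 4 and analysed with high-throughput quantitative proteomics. On the log2 scale used, higher values mean more of the domain stayed soluble.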

Row | Sequence | soluble fraction (log2)
1 | HMYAGTWISESGQWKYRNDDGSFAKGWFQDLDSRWYYFDANGHMLSDTLTPDGYRLGEDGAWVND | -1.42
2 | HMGDTIGEQKAKEIALEHAGLKSSDVTFIRAVLEYDDRNWEYDVEFYDADTYTEYDYEIDAHTGKILSFDH | -0.171
3 | HMQRDDMQIDRLIQIVFLLLSRNNLTAKQLAEELGVSTRTIYRDINILSVAGIPITSQKGYGGGLSLLQG | -0.261
4 | HMDMQMPIMNGLEFLERINLTLDDNFSIIVLTGKIEDKSIEKSFELGINAYLRKPFNIYALLGIVRQN | -0.102
5 | HMPYLVNGFILEVQSDDNNPVGTLKRRYAVAKNKQGVILLEGEKSFSSNDQILINELKFYIQSNDLKA | -1.39
6 | HMPAGWIPARIRLADYPQLRSLAWHVQGIDTLTPTEALDIYERNARHLDAQAMSAQEQDLLASLRLALS | -1.06
7 | HMQNDILIQADEIVGDYFDMDKEALKMNKQAVIADIEKRQATAQGDEASALHYAKQKVENEFEDDGSQKD | -0.233
8 | HMPESFSEMQKRTGVGEFSDDALSAKYVDSIDADVMSLDEYIMKVRGISLDDLEAERALRAR | -0.884
9 | HMVFRFELQPSSATPLYRQIVEQVTRAVAAGVLRDGEELPSVRAVAQEYVINPMTVSKAYSLLEAQSI | -0.34
10 | HMYSKVSFTVSVGMTSERVSASLKALGIIDDSAKFNRYLVSNGYSTRIKVGTVELQAGQSYAEIASKLV | 0.151
11 | HMGPKALLKIPGLQEVDAELLFKEGYKSISAVASADPEMLKAIPGVDEQKVTEWVTGAEQILSQQVNKGA | 0.25
12 | HMIDHLPPQRAAVLAFLQRELVAGRSPSLAEIALAFGFASRNAAQKHVQALVADGLLEQATGRSRGLRLPG | -0.235
13 | HMSAVIGTATVTTSSGSLNLRESASLYSRVIRTIPRGATVDVLSRDTSWSRVRYAGSEGYVLNQYLTFQT | ≥ 0.43
14 | HMPRRSYLDARKKLLGMLNSPDFNSGDQIPAERELSEVLGISRVTVRKIITELIDEGVLERRGNQGTWLVD | -0.48
15 | HMAGTWQDQGNGQWKYQNDDGSYATGWIEDSGKSYYLDANGIMLANTTTPDGKQVGPDGALIP | -1.69
16 | HMSEYITEGWLREKFGLGWGTEVHLPLDSRLTPAAHQLLEERKIVIKYIDAEGRVFNPDKSGEEAPVQ | -0.343
17 | HMTETSKLTDAKQLLESILSSGEVSYKDIISAAEEYEIGKRTLMSAKALLSIESIKKTDGWYWTLPH | -0.0778
18 | HMKNKVTVPKVEGMDKEEAIQALNEVGLGYKAVMQSSDSVAEGKVISQGTAAGKKVDKNTQIIITVSGG | ≥ 0.43
19 | HMEAVGLTPRQGDVLALLLQGKPNKLIARDLNLSVETVKDHVAAVLRALGVSTRTQAVLAVSQMQQQAAQ | -0.221
20 | HMKTATAKIKATPFGWLRVRETPSLNGAEIARVNSGESYKILERGEGWIKIKVSDTVEGWVSEAYVELS | -0.236
21 | HMTSLSYINDLVTGATAQGLYRIVVPNQFMDDNMANVLRRTYGYQVQSRTSLMGTFDDYIISWAPPM | -1.59
22 | HMEAKQMDAWIVSEAKRQGGKIEPAAAYELSRHTATDTSIASQEIAKLLMYVDFKRPVTREDVVELVSA | -0.0795
23 | HMKKEETEAEELEEKFTSAQIKQAYGILNDPRYKQGNYSGAVNVINKIAPGLADHPDVKNALKRANEEL | -0.323
24 | HMSTGGDLTQRERELLGLMARGLSNQEISKRLTIAMPTVKFHVTNILAKLHADNRTEAVLVALKNKLVAL | -0.175
25 | HMKPSTVSVPDVSGDKLSTAKMIIRKSGLKVGDVQKIEDDNVGAGKVVRTNPSAGSKKREGSSVDIFVASA | 0.111
26 | HMTAKQDLDSIYRHLVATRKSIAENPKMVSSIDDPQALIKMLDYAIQYFYTDKRDEALAVLEKNEEQLNFR | -0.206
27 | HMKFINISIDKSGNLFINKKSIKFQDLKYNVVNLVDESKNLVVLNADENISHGYVISVLDVLRSIDGLKLA | -0.802
28 | HMTVSADIIQKIIKTSTTDENIITIDSISNSISKLALSKITAEDIIEILEASSLVLRNSNGSWTVL | -0.716
29 | HMVLGSSVAMGQKIGDSDLTWVEVPLSSAFDRFLSEPEWRGSSDLVAARLLEAGVFLTEDDVVE | 0.136
30 | HMKNLTERQQQIIALISGNPLITRAEIASAIGFSVKTIERELSILSEIVSYVGSKKGGHWEIQT | -0.49
